Assay results as given in the Human Domainome abundance scans (Beltran et al. 2025).
± gives the uncertainty stated by the source.

B1: Cytoplasmic polyadenylation element-binding protein 2, residues 513 to 575; numbered along this chain, Q7Z5Q1 (parent)
chain: KRVEVKPYVLDDQMCDECQGARCGGKFAPFFCANVTCLQYYCEFCWANIHSRAGREFHKPLVK

Variants of: B1
Experiment: abundance fitness (aPCA) (normalised: wild type 0, dead -1); higher = more abundant; growth selection in yeast, the domain comes from the species named
Conditions: Homo sapiens
In the case of KRVEVKPYVLDDQMCDECQGARCGGKFAPFFCANVTCCQYYCEFCWANIHSRAGREFHKPLVK [L38C], the abundance fitness is reported as 0.064 ± 0.058. With KRVEVKPYVLDDQMCDECLGARCGGKFAPFFCANVTCLQYYCEFCWANIHSRAGREFHKPLVK [Q19L] the abundance fitness was 0.075 ± 0.034. For KRVEVKPYVLDDQMCDECQGARCGGKFAPFFCANVTCLQYYCEFCWANIHSRWGREFHKPLVK [A53W], the abundance fitness was -0.287 ± 0.049. For KRVEVKPYVLDDQMCDECQGARCGGKFAPFFCANVTCLQYYCEFCWANIHSRLGREFHKPLVK [A53L], the abundance fitness was -0.092 ± 0.033. KRVEVKPYVLDDQMCDECQGARCGGKFAPFFCANVTCLQYYCEFCWANIHSRAGREFHKPLSK [V62S] gave an abundance fitness of -0.081 ± 0.34. In the case of KRVEVKPYVLDDQMCDECQGARCGGKFAPFFCANVTCLQYYCEFCWANIHSRAGREFKKPLVK [H58K], the abundance fitness is reported as -0.384 ± 0.062. In the case of KRVEVKPYVLDDQMCDECQGARCGGKFAPFFCANVTCLQYYCEFCWANIHSRAGREFAKPLVK [H58A], the abundance fitness is reported as -0.743 ± 0.066. For KRVEVKPYVLDDQMCDECQGARCGGKFAPFFCANVTELQYYCEFCWANIHSRAGREFHKPLVK [C37E], the abundance fitness was -0.76 ± 0.083. In the case of KRVEVKPYVLDDQMCDECQGARCGGKFAPFFCANVTVLQYYCEFCWANIHSRAGREFHKPLVK [C37V], the abundance fitness is reported as -0.88 ± 0.068. Variant KRVEVKPYVLDDQMCDECQGARCGGKFAPFFCANVTLLQYYCEFCWANIHSRAGREFHKPLVK [C37L] has an abundance fitness of -0.931 ± 0.074. KRVEVKPYVLDDQMCDECQGARCGGKFAPFFCANVTHLQYYCEFCWANIHSRAGREFHKPLVK [C37H] showed an abundance fitness of -0.352 ± 0.29. Variant KRVEVKPYVLDDQMCDECQGARCGGKFAPFFCANVTCLQYYCEFCWNNIHSRAGREFHKPLVK [A47N] has an abundance fitness of 0.127 ± 0.11. Work on KRVEVKPYVLDDQMCDECQGARCGGKFAPFFCANVTCLQYYCEFCWWNIHSRAGREFHKPLVK [A47W] yielded an abundance fitness of -0.133 ± 0.065. For KRVEVKPYVLDDQMCDECQGARCGGKFAPFFQANVTCLQYYCEFCWANIHSRAGREFHKPLVK [C32Q], the abundance fitness was -0.742 ± 0.096. KRVEVKPYVLDDQMCDECQGARCGGKFAPFFKANVTCLQYYCEFCWANIHSRAGREFHKPLVK [C32K] gave an abundance fitness of -0.617 ± 0.072. Variant KRVEVKPYVLDDQMCDECQGARCGGKFAPFFCAEVTCLQYYCEFCWANIHSRAGREFHKPLVK [N34E] has an abundance fitness of 0.043 ± 0.044. Variant KRVEVKPYVLDDQMCDECQGARCGGKFAPFFCAPVTCLQYYCEFCWANIHSRAGREFHKPLVK [N34P] has an abundance fitness of -0.878 ± 0.11. Work on KRVEVKPYVLDDQMCDECQGARCGGKFAPFFCAVVTCLQYYCEFCWANIHSRAGREFHKPLVK [N34V] yielded an abundance fitness of -0.29 ± 0.051. Work on KRVEVKPYVLDDQMCDECQGARCGGKFAPFFCARVTCLQYYCEFCWANIHSRAGREFHKPLVK [N34R] yielded an abundance fitness of -0.207 ± 0.046. KRVEVKPYVLDDQMCDECQGARCGGKFAPFFCANVTCLQYYCEFCWANIHSRAGREFHKLLVK [P60L] gave an abundance fitness of -0.517 ± 0.048. For KRVEVKPYVLDDQMCDECQGARCGGKFAPFFCANVTCLQYYCEFCWANIHSRAGREFHKRLVK [P60R], the abundance fitness was -0.052 ± 0.041. In the case of KRVEVKPYVLDDQMCDECQGARCGGKFAPFFCANVTCLQYYHEFCWANIHSRAGREFHKPLVK [C42H], the abundance fitness is reported as -0.818 ± 0.068. KRVEVKPYVLDDQMCDECQGARCGGKFAPFFCANVTCLQYYLEFCWANIHSRAGREFHKPLVK [C42L] gave an abundance fitness of -1.03 ± 0.075. In the case of KRVEVKPYVLDDQMCDECQGARCGGKFAPFFCANVTCLQYYCEFCWANIHSRAGGEFHKPLVK [R55G], the abundance fitness is reported as -0.176 ± 0.055. KRVEVKPYVLDDQMCDECQGARCGGKFAPFFCANVTCLQYYCEFCWANIHSRAGEEFHKPLVK [R55E] showed an abundance fitness of -0.142 ± 0.071. For KRVEVKPYVLDDQMCDECQGARCMGKFAPFFCANVTCLQYYCEFCWANIHSRAGREFHKPLVK [G24M], the abundance fitness was -0.275 ± 0.06. In the case of KRVEVKPYVLDDQMCDECQGARCGGKFAPFFCANVTCLQYYCRFCWANIHSRAGREFHKPLVK [E43R], the abundance fitness is reported as -0.107 ± 0.036. With KRVEVKPYVLDDQMCDECQGARCGGKFAPFFCANVTCLQYYCEFCWANIHSRAGREFHKPGVK [L61G] the abundance fitness was 0.076 ± 0.042. KRVEVKPYVLDDQMCDECQGARCGGKFAPFFCANVTCLQYYCEFCWANIHSRAGREFHKPKVK [L61K] showed an abundance fitness of 0.065 ± 0.064. In the case of KRVEVKPYVLDDQMCDECQNARCGGKFAPFFCANVTCLQYYCEFCWANIHSRAGREFHKPLVK [G20N], the abundance fitness is reported as -0.499 ± 0.092. For KRVEVKPYVLDDQMCDECQYARCGGKFAPFFCANVTCLQYYCEFCWANIHSRAGREFHKPLVK [G20Y], the abundance fitness was -0.598 ± 0.11. Variant KRVEVKPYVLDDQMCDECQGARCGGKFAAFFCANVTCLQYYCEFCWANIHSRAGREFHKPLVK [P29A] has an abundance fitness of 0.009 ± 0.056. In the case of KYVEVKPYVLDDQMCDECQGARCGGKFAPFFCANVTCLQYYCEFCWANIHSRAGREFHKPLVK [R2Y], the abundance fitness is reported as -0.513 ± 0.095. In the case of KKVEVKPYVLDDQMCDECQGARCGGKFAPFFCANVTCLQYYCEFCWANIHSRAGREFHKPLVK [R2K], the abundance fitness is reported as 0.101 ± 0.058. KRVEVKPYVLDDQMCDECQGARCGGKFAPFFCANVTCLQYYCEFCWANKHSRAGREFHKPLVK [I49K] showed an abundance fitness of -0.127 ± 0.07. KRVEVKPYVLDDQMCDECQGARCGGKFAPFFCANVTCLQYYCEFCWANQHSRAGREFHKPLVK [I49Q] gave an abundance fitness of -0.132 ± 0.067. KRVEVKPYVLDDQMCDECQGARCGGKFAPFFCANVTCLQYYCEFCWANTHSRAGREFHKPLVK [I49T] showed an abundance fitness of -0.139 ± 0.047. Variant KRVEVKPYVLDDQMCDECQGARCGGKFAPFFCANVTCLQYYCEFCWANRHSRAGREFHKPLVK [I49R] has an abundance fitness of -0.006 ± 0.058. In the case of KRVEVKDYVLDDQMCDECQGARCGGKFAPFFCANVTCLQYYCEFCWANIHSRAGREFHKPLVK [P7D], the abundance fitness is reported as 0.132 ± 0.097. KRVEVKAYVLDDQMCDECQGARCGGKFAPFFCANVTCLQYYCEFCWANIHSRAGREFHKPLVK [P7A] gave an abundance fitness of -0.227 ± 0.056. KRVEVKPYVLDDQMCDECQGARCGGKFAPFACANVTCLQYYCEFCWANIHSRAGREFHKPLVK [F31A] showed an abundance fitness of -0.644 ± 0.081. Work on KRVEVKPYVLDDQMCDECQGARCGGKFAPFGCANVTCLQYYCEFCWANIHSRAGREFHKPLVK [F31G] yielded an abundance fitness of -0.685 ± 0.06.
